Laboratory results from patent US20160052997A1 (CELLTRION, published 2016).

Target: HA of A/CA/04/09 (H1N1) virus (Influenza A virus A/CA/04/09 (H1N1))
Test: cell-based or functional assay

B1: CT120 (antibody, V domains shown)
VH: QVQLVQSGAEVKMPGSSVKVSCKTSGVFFSSHAISWVRQAPGQGLEWMGGISPMFGTTHYAQKFQGRVTITADQSTTTAYMELTSLTSEDTAVYYCARDGAGSYYPLNWFDPWGQGTLVTVSS
VL: EIVLTQSPATLSLSPGERATLSCRASENIWNNLAWYQQKPGQAPRLLISGASTGATGVPSRFRGSGSRTEFTLTISSLQSEDFAIYFCQQYNSWPRTFGPGTKVEIKR
- EC50, microneutralization test: 0.21 µg/mL
